Source: patent US7893216B2 (The Institute of Basic Medical Sciences of Chinese Academy …, priority 2004, dated 2011)

Key:
[1] = test system: liver cancer cells SMMC-7721; test: Tumoricidal activity in vivo, SMMC-7721 cells in nude mice; parameters: species or system nude mice BALB/c; settings: SMMC-7721 in nude mice
Procedure: (§1) The dose was 15 mg/kg, three times administration in total. The mice of negative control group (n=8) were administrated with physical saline. The mice of positive control group (n=5) were administrated with cyclophosphamide (CTX, 60 mg/kg). […] Three weeks later, the mice were sacrificed and the growth of tumor was determined by the weight of the tumor mass.

[2] = test system: human primary normal lymphocytes; test: Effect on normal human primary lymphocytes in vitro (MTS); assay type: cell-based
Procedure: (§2) After treatment, MTS reagent (Promega, USA) was then added and reacted for 2-4 hours and the absorbance values (OD value) of each well were read by using an automatic multi-well spectrophotometer, Wellscan MK3 (Thermo Labsystems, Finland) at the wavelength of 492 nm. OD value of no cell wells is considered as “0,” and the survival rate of the cells is equal to ratio of OD value of treated wells to OD value of control wells.

[3] = test system: tumor cells such as liver and lung cancer; test: Synergy of tumoricidal activity with TRAIL; assay type: cell-based; settings: combined with TRAIL
[4] = biological target: T1, recombinant human DR4 extracellular domain protein (Homo sapiens, UniProt O00220); test: ELISA cross-reactivity of AD5-10 with DR4; assay type: binding
T1 construct: recombinant human DR4 or DR5 extracellular domain protein expressed in E. coli; made in house; host or cells: E. coli
T1 sequence (O00220 24-239 limits assumed): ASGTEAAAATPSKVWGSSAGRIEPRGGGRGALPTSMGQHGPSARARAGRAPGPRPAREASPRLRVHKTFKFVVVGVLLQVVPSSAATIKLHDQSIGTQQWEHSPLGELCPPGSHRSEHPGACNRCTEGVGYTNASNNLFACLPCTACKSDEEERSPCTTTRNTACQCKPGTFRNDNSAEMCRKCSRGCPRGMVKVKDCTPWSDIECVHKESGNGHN
Procedure: ELISA was used for testing the specific combination of AD5-10 with its anitgen. ELISA plates (Costar, USA) were coated with recombinant human DR4 or DR5 extracellular domain protein expressed in E. coli over night, blocked with 5% nonfat milk at room temperature for two hours. […] The absorbency at 492 nm was measured on a microtiter reader of enzyme-labelled machine, Wellscan MK3 (Thermo Labsystems, Finland).

Jurkat cells = test: Western blot of caspase activation and PARP cleavage; assay type: cell-based, human
Procedure: After the collected cells were lysed in cell cleavage solution, SDS-PAGE was used, the proteins separated in the gel were subsequently electrotransferred onto a polyvinylidene difluoride (PVDF) membrane. The membrane was then incubated with the indicated primary antibodies (Santa Cruz, USA) and probed with HRP-conjugated secondary antibodies (Beijing Zhongshan Co.). The proteins were visualized by ECL Plus Western Blotting Detection System (Amersham Biosciences, USA).

[5] = test system: leukemia, liver and lung cancer cells; test: Tumoricidal activity in vitro (MTS cell viability); assay type: cell-based, human
Procedure: as §2

[6] = test system: human leukemia, liver and lung cancer cells; test: Suppression of tumor formation and growth of human tumor cells in nude mice; assay type: in vivo; settings: compared to the control group
Procedure: as §1

B1: AD5-10: murine monoclonal antibody against human TRAIL receptor DR5, subtype IgG3κ, VL SEQ ID No. 1, VH SEQ ID No. 2, hybridoma CGMCC 1192 (antibody, V domains shown)
VH: QIQLVQSGPELKKPGETVKISCKASGYTFTDFSMNWVKQAPGKGLKWMGWINTETGEPTYADDFKGRFALSMETSASTAYLQINNLKNEDTATYFCVRIDYWGQGTTLTVSS
VL: DVVMTQTPLSLPVSLGDQASISCRSSQSLVHSNGNTYLHWYLQKPGQSPKLLIYKVSNRFSGVPDRFSGSGSGTDFTLKISRVEAEDLGVYFCFQSTHVPHTFGGGTKLEIKR
modifications: mus musculus
- tumor formation ([1]; early treatment): inhibits the tumor formation
- tumor growth ([1]; late treatment): inhibites the tumor growth
- toxicity to normal lymphocytes [2]: without toxicity to human primary normal lymphocytes in vitro
- synergy with TRAIL [3]: can synergize the tumoricidal activity with TRAIL
- cross-reaction with death receptor DR4 [4]: does not cross-react
- caspase cascade activation and PARP cleavage (Jurkat cells): activates caspase cascade and PARP (poly ADP-ribose polymerase) cleavage
- killing of tumor cells [5]: kills leukemia, liver and lung cancer cells with dose-dependent manner
- death and abnormalism in appetite, function, skin and hair (Toxicity study in mice; 150 mg/kg, 1 and 2 month's observation): does not cause observably death
- histological analysis of organs (Toxicity study in mice; mice, organs such as liver): no pathological changes
- inhibition rate [6]: about 80%
